Columns and labels:
[1] = target: Brush border membrane vesicles (BBMV) prepared from midguts of third instar western corn rootworm (Diabrotica virgifera virgifera LeConte) larvae; putative receptor(s) on the BBMV (Diabrotica virgifera virgifera)
[2] = target: Brush border membrane vesicles (BBMV) prepared from midguts of third instar western corn rootworm (Diabrotica virgifera virgifera LeConte) larvae; putative receptor(s) on the BBMV (Diabrotica virgifera virgifera); remark: listed apart in the source

Substance: Cry3Aa trypsin core (trypsin-truncated Cry3Aa core protein) (from UniProt P0A379 159-644)
- Bmax (binding site concentration) (pmole/ug BBMV) [1]: 146
- Kd [2]: 24 nM

Substance: Cry35Ab1 chymotrypsin core (chymotrypsin-truncated Cry35Ab1 core protein) (from UniProt Q939S9 1-354)
- Bmax (binding site concentration) (pmole/ug BBMV) [1]: 31.7
- Kd [2]: 2.31 nM
